Test results as given in PMC7582951.

Biological target: C0-C1-C2 region of the glutamate NMDAR NR1 subunit (mouse) (UniProt P35438)
Assay: pull-down; competition: 0.2 uM CaM with NR1 C0-C1-C2 covalently attached to NHS-activated Sepharose, 2.5 mM CaCl2, increasing concentrations of σ1R WT or E102Q; bound CaM and σ1R by western blot

Chain of UniProt P35438 (P35438 834-938): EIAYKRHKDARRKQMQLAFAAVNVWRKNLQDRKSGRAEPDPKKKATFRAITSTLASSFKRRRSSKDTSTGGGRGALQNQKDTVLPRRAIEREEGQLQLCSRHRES

concentration that prevented the binding of 200 nM CaM to NR1	concentration that abolished the binding of 200 nM CaM to NR1	Substance
< 0.2 nM	–	sigma receptor type 1 (σ1R) E102Q mutant (from UniProt O55242 1-223) (natural protein)
–	60 nM	sigma receptor type 1 (σ1R), wild-type (from UniProt O55242 1-223) (natural protein)
